In patent US5686583, “Specific antibodies against activated platelets, the preparation thereof and the use thereof in diagnosis and therapy” (Behringwerke Aktiengesellschaft, dated 1997) one finds binding result and fold stronger reaction with thrombin-activated than with non-activated platelets data, which are given here for one molecule.

Bounds are passed on as bounds.

The target of one assay is fibrinogen (Homo sapiens (Human), UniProt P02671-2). The assay is described as follows: immunoprecipitation and Western blotting. (In general: A western blot detects proteins with antibodies after separation by electrophoresis.)
The target of the next assay is fibronectin (Homo sapiens (Human), UniProt P02751-8). The assay is described as follows: immunoprecipitation and Western blotting.
The next assay deals with gP 140 (Homo sapiens (Human), UniProt P16109). As to the kind of experiment: Western blot.
A further assay deals with v. Willebrand factor (Homo sapiens (Human), UniProt P04275). The assay is described as follows: Western blot.
The target in assay [1] is human thrombospondin (TSP) (human, UniProt P07996). The assay is described as follows: Western blot.
Assay [2] has as its target platelet antigen recognized by MAb BW 2128 (human). As to the kind of experiment: reaction with platelets; method not further stated.

B1: MAb BW 2128 (antibody, V domains shown)
VH: LQQSGAELVKPGASVTLSCKASGYTFTSYWMHWVKQRPGQGLEWIGEINPSNGRTNYNEKFKSKATLTVDKSSSTAYMHLSSLTSDDSAVYYCARGAGAGGYWGQGTTVTVSS
VL: QLTQSPAIMSASPGEKVTMTCSASSSVTYMHWCQQKSGTSPKRWIYDTSKLASGVPARFSGSGSGTSYSLTISSMEAEDAATYYCQQWNSNPLTFGAGTKLEI
For B1, the binding result (with fibrinogen; with fibronectin; with gP 140; with v. Willebrand factor; in assay [1]) was “no binding” in each case. This molecule had a fold stronger reaction with thrombin-activated than with non-activated platelets in assay [2] above 10 ×.
